Source: publication PMC5643146

Target: xTCF1
Assay: co-IP; binding competition: HEK293T cells transfected with flag-TCF and β-cat1 or β-cat4 alone, together, or with β-cat2 as control; IP with FLAG-M2 beads; precipitated β-catenins quantified and normalised against total β-catenins in whole cell lysates

Row | relative binding to TCF, β-cat4 alone and β-cat1+β-cat4 co-transfected compared | relative binding to TCF, β-cat4 alone and β-cat4+β-cat2 co-transfected compared (negative control) | relative binding to TCF, β-cat1 alone and β-cat1+β-cat2 co-transfected compared (negative control) | relative binding to TCF, β-cat1 alone and β-cat1+β-cat4 co-transfected compared | Substance
1 | 0.51 | 0.91 | – | – | Smed-β-catenin4 (natural protein)
2 | – | – | 1.11 | 0.63 | Smed-β-catenin1 (natural protein)
